One experiment concerns the target T1, Nectin-like-3 (UniProt Q8N3J6 25-367, limits assumed).
T1 construct: Bought recombinant protein; also called CADM2; IgSF4D
T1 sequence (looked up): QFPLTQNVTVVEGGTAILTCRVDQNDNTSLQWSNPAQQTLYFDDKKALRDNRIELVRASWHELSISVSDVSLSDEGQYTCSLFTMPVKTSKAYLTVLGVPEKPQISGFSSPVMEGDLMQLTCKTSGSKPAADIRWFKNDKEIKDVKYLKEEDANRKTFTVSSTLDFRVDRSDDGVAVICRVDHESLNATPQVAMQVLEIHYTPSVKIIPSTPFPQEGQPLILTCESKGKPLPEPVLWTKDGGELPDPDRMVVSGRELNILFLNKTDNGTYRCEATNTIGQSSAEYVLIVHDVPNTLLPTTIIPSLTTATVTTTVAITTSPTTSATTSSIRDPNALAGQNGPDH
Nature of the experiment: ELISA, coated antigen, antibody at 100 ng/ml. As to the method: (§1) Coating: Nectin-1, Nectin-2, Nectin-3, Nectin-4, Nectin-like-1, Nectin-like-2, Nectin-like-3, Nectin-like-4, and Nectin-like-5 were diluted to 5 μg/ml in coating buffer (carbonate buffer, pH 9.6) respectively. A 96-well plate was coat with 100 μl per well and incubated overnight at 2-8° C.;
(§2) Sample loading: The plate was taken out, patted dry, and washed twice with 200 μl/well of PBST, then patted dry. The Nectin-4 antibodies prepared in Example 1 (antibody MM11, antibody R012, and antibody R036) were diluted with 1% BSA/PBST to concentrations of 10 μg/ml, 1 μg/ml, 100 ng/ml, and 10 ng/ml, respectively. 1% BSA/PBST solution for dilution was set as a blank control. 100 μl per well was added to the 96-well plate, and incubated at room temperature for 2 hours;
(§3) Reaction termination and plate reading: 100 μl/well of 1 mol/L H3PO4 was added to terminate the reaction and the plated was read. The absorbances of wells in the plate at 450 nm with 650 nm as reference wavelength were read and recorded as OD_{450 nm-650 nm}.
Background: In an ELISA, binding on a coated surface is turned into a signal by an enzyme label.

In experiment [1] the target is T2, Nectin-like-4 (UniProt Q8NFZ8 21-324, limits assumed).
T2 construct: Bought recombinant protein; also called CADM4; IgSF4C
T2 sequence (looked up): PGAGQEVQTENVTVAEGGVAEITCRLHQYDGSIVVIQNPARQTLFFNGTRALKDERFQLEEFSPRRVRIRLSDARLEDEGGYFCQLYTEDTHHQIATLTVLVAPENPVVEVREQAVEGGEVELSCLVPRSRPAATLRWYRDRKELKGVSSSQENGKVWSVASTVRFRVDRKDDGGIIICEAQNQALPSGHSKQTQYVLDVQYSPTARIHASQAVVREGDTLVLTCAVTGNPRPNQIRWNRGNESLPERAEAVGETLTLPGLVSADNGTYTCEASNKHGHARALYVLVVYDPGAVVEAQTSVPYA
Nature of the experiment: ELISA, coated antigen, antibody at 100 ng/ml. The method, then: as §1, §2, §3

Experiment [2] concerns the target T3, Nectin-1 (UniProt Q15223 31-334, limits assumed).
T3 construct: Bought recombinant protein; also called CD111; PVRL-1
T3 sequence (looked up): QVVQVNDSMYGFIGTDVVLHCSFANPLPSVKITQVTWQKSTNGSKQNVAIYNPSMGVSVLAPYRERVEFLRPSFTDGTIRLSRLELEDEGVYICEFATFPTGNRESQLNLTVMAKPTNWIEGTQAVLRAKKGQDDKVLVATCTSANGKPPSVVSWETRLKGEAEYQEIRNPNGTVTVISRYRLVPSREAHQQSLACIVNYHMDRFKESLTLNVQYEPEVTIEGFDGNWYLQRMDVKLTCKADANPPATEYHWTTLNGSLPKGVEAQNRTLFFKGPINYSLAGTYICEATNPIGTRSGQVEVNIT
Put plainly: ELISA, coated antigen, antibody at 100 ng/ml. As to the method: as §1, §2, §3

The target in experiment [3] is T2, Nectin-like-4. Put plainly: ELISA, coated antigen, 0 ng/ml antibody (blank control). The method, then: as §1, §2, §3
The target in another experiment is T4, Nectin-like-5 (UniProt P15151 21-343).
T4 construct: Bought recombinant protein; also called CD155; PVR
T4 sequence (looked up): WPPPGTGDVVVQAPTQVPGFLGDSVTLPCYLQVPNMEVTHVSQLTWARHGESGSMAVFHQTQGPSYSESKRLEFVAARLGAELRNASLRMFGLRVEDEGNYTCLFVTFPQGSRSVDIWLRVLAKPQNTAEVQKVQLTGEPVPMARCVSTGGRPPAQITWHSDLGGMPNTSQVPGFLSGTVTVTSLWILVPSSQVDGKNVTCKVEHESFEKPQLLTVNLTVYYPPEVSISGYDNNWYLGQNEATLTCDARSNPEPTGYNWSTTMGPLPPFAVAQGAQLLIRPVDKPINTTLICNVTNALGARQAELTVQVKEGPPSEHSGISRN
The description is as above. As to the method: as §1, §2, §3

For experiment [4], the target named is T5, recombinant human Nectin-4 protein (human, UniProt Q96NY8 32-349).
T5 construct: Prepared in-house (Jiangsu Mabwell) by transient transfection of CHO cells; also called PVRL-4; PRR-4
T5 sequence: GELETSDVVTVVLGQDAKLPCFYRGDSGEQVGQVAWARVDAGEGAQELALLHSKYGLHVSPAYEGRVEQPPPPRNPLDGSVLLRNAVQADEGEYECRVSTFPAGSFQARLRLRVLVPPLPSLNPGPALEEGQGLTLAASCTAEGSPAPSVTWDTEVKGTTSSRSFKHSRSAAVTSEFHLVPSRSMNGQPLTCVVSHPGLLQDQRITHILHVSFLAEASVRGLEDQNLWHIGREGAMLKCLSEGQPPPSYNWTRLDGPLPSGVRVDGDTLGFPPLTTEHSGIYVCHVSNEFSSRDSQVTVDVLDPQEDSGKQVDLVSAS
The experiment is described as above. The method, then:
as §1, §2, §3

For experiment [5], the target named is T3, Nectin-1. The description is as above. The method, then: as §1, §2, §3
In the next experiment the target is T6, Nectin-2 (UniProt Q92692 32-360, limits assumed).
T6 construct: Bought recombinant protein; also called CD112; PVRL-2
T6 sequence (looked up): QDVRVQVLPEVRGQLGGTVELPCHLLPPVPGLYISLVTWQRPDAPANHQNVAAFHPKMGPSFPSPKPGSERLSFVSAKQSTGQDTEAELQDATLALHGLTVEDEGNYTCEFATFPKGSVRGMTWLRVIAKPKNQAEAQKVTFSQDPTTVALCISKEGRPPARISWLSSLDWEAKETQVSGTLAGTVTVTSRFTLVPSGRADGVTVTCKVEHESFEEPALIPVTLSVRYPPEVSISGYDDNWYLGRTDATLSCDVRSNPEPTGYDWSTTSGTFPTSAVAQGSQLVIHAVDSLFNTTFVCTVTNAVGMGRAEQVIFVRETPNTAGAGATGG
Described as above. The method, then: as §1, §2, §3

B1: Antibody R012 (antibody, V domains shown)
VH: SKSVEESGGRLVTPGTPLTLTCTVSGFSLSTYAMSWVRQAPGKGLEYIGIISGRGTTYYASWLKGRFTISKTSTTVDLKITSPTTEDTATYFCARDAGISDVYTGYFNLWGQGTLVTVSS
VL: QPVLAQLPSASAALGASAKLTCTLSSAHRTYTIAWYQQQQGEAPRYLMMLKSDGSYTKGTGVPDRFSGSSSGADRYLIISSVQAADEADYYCGADDSGGYVFGGGTQLTVTG
notes: Rabbit monoclonal antibody from phage display; also called Nectin-4 rabbit monoclonal antibody R012; rabbit antibody R012
As for B1, the OD detection value in the experiment with Nectin-like-3 was found to be 0.008 OD450 nm-650 nm; with Nectin-like-4 [1] it was 0.008 OD450 nm-650 nm; with Nectin-1 [2] it was 0.007 OD450 nm-650 nm; with Nectin-like-4 [3] it was 0.008 OD450 nm-650 nm; in the experiment with Nectin-like-5, 0.008 OD450 nm-650 nm; in experiment [4] it was 0.008 OD450 nm-650 nm. Moreover, the OD detection value in the experiment with Nectin-1 [5] is 0.007 OD450 nm-650 nm; in the experiment with Nectin-2 it was 0.009 OD450 nm-650 nm.

B2: Antibody R036 (antibody, V domains shown)
VH: SQSVEESGGRLVTPGTPLTLTCTVSGFSLSSYAMSWVRQAPGKGLEYIGIIGGRGTTYYAIWAKGRFTISKTSTTVDLKITSPTTEDTATYFCARDAGTTYVGTTYVATGYFNLWGQGTLVTVSS
VL: QPVLTQPPSASAALGASAKLTCTLSSAHKTYTIAWYQQQQGEAPRYLMILKSDGSYTRGTGVPDRFSGSSSGADRYLIISSVQADDEADYYCGADDSGGYVFGGGTQLTVTG
notes: Rabbit monoclonal antibody from phage display; also called Nectin-4 rabbit monoclonal antibody R036; rabbit antibody R036
With B2, the OD detection value in the experiment with Nectin-like-3 was determined as 0.007 OD450 nm-650 nm; with Nectin-like-4 [1], 0.007 OD450 nm-650 nm; with Nectin-1 [2], 0.007 OD450 nm-650 nm; in the experiment with Nectin-like-4 [3], 0.007 OD450 nm-650 nm; with Nectin-like-5, 0.008 OD450 nm-650 nm; in experiment [4] it was 0.007 OD450 nm-650 nm. The OD detection value with Nectin-1 [5] and with Nectin-2 was 0.007 OD450 nm-650 nm each time.

B3: Antibody MM11 (antibody, mouse IgG1, kappa, V domains shown)
VH: DVQLQESGPGLVKPSQSLSLTCSVTGYSITSNFYWNWIRQFPGNRLEWMGYISYDGSNNYNPSLKNRISISRDTSKNQFFLKLNSVTTEDTATYYCVRADYWGQGTLVTVSA
VL: DTVMTQTPLSLPVSLGDQASISCRSSQSLESSDGHAYLNWYLQKPGQSPQLLIYRVSNRFSGVLHRFSGSGSGTDFTLKISRVEAEDLGVYFCLQFTHVPFTFGSGTKLEIKR
notes: Mouse monoclonal antibody from hybridoma; also called Nectin-4 mouse monoclonal antibody MM11; mouse antibody MM11
On to B3, for which the OD detection value in the experiment with Nectin-like-3 was found to be 0.031 OD450 nm-650 nm; in the experiment with Nectin-like-4 [1] it was 0.007 OD450 nm-650 nm; with Nectin-1 [2], 0.008 OD450 nm-650 nm; with Nectin-like-4 [3], 0.008 OD450 nm-650 nm; with Nectin-like-5, 0.011 OD450 nm-650 nm; in experiment [4] it was 0.008 OD450 nm-650 nm. The OD detection value amounted to 0.005 OD450 nm-650 nm in the experiment with Nectin-1 [5] and 0.007 OD450 nm-650 nm with Nectin-2.

The values are drawn from patent US20260265354A1 (JIANGSU MABWELL HEALTH PHARMACEUTICAL R AND D, published 2026).
